Assay results reported in the nanobody polyreactivity screen of Harvey et al. (2022).

Assay: yeast display, Sf9 membrane polyspecificity reagent, FACS + sequencing; frameworks hold sequencing errors
Method in brief: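 After 36–48 hours of galactose induction, yeast (Saccharomyces cerevisiae BJ5465) displaying a synthetic nanobody library were stained at 4 °C for 1 hour with 10% biotinylated, detergent-solubilized Sf9 membrane reagent. Streptavidin microbeads enriched the stained cells before FACS sorting into low and high (top ~1%) gates on anti-HA and streptavidin fluorescence. Each clone's polyreactivity label reflects its gate of origin.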

Sequence: QVQLVESGGGLVQAGGSLRLSCAASGRIFAGYAMGWYRQAPGKEREFVATITSRAGNTYYADSVKGRFTISRDNAKNTVYLQMNSLKPEDTGVYYCAARSRGWAGYYYWYKDYSWGQGTQVTVSS
- polyreactivity (PSR sort gate): high polyreactivity

Sequence: QVQLVESGGGLVQAGGSLRLSCAASGRIFAHNAMGWYRQAPGKERELGASINSGGSTTYADSVKGRFTISRDNAKNTVYLQMNSLKPEDTAVYDCAKRDKYGKYDYWGQGTQVTVSS
- polyreactivity (PSR sort gate): low polyreactivity

Sequence: QVQLVESGGGLVQAGGSLRLSCAASGRIFAHYAMGWYRQAPGKERELVAAIRRSGVSTYYADSVKGRFTSSRDNAKNTVYLQMNSLKPEDTAVYYCNARAYVSPYDYWGQGTQVTVSS
- polyreactivity (PSR sort gate): low polyreactivity

Sequence: QVQLVESGGGLVQAGGSLRLSCAASGRIFAIYAAIGWYRQAPGKERELVAAISSGDNTNYADSEKGRFTISRDNAKNTVYLQMNSLIPEDTAVYYCATDLVYYAAVTKFAEYDYWGQGTQVTVSS
- polyreactivity (PSR sort gate): low polyreactivity

Sequence: QVQLVESGGGLVQAGGSLRLSCAASGRIFAPYAMGWYRQAPGKERELVAAITSGGSTNYADSVKGRFTISRDNAKNTVYVQMNSLKPEDTAVYYCAAEASYNYGKYVVTYDYWGQGTQVTVSS
- polyreactivity (PSR sort gate): high polyreactivity

Sequence: QVQLVESGGGLVQAGGSLRLSCAASGRIFAPYDMGWYRQAPGKERELVASITSGGSTNYTDSVKGRFTISRDNAKNTVYLQMNSLKPEDTAVYYCNTAKISEPTDPLQRVWGGTYDYWGQGTQVTVSS
- polyreactivity (PSR sort gate): low polyreactivity

Sequence: QVQLVESGGGLVQAGGSLRLSCAASGRIFARNALGWYRQAPGKEGELVARIRASGGSTYYADSVKGRFTISRDNEKNTVYLQMNSLKPEDTAVYYCNARTSSPYRVDYWGQGTQVTVSS
- polyreactivity (PSR sort gate): high polyreactivity

Sequence: QVQLVESGGGLVQAGGSLRLSCAASGRIFARNAMGWYREAPGKERELVATIRVGGGSTYYADSVKGRFTISRHNAKNTVYLQMNSLKPEDTAVYYCAVRQLYSYPGDRRGYYWGQGTQVNVSS
- polyreactivity (PSR sort gate): low polyreactivity

Sequence: QVQLVESGGGLVQAGGSLRLSCAASGRIFARNAMGWYRQAPGKERELVAGITWSGSSTYYADSVKGRFTISRDNAKNTVYLQMNSLKPEDTAVYYCAVDYYVGSLRIDHDYWGQGTQVTVSS
- polyreactivity (PSR sort gate): low polyreactivity

Sequence: QVQLVESGGGLVQAGGSLRLSCAASGRIFARNAMGWYRQAPGKERELVATIRVGGGSTYYADSVKGRFTISRDNAKNTVYLQMNSLKPEDTAVYYCAVRQLYSYPGDRRGYYWGQGTQVTVSS
- polyreactivity (PSR sort gate): low polyreactivity

Sequence: QVQLVESGGGLVQAGGSLRLSCAASGRIFARYAMGWNRQAPGKERELVAAISFRGGSTYYADSVKGRFTISRDNAKNTVYLQINSLKPEDTAVYYWNARYGRGGYDYWGQGTQVTVSS
- polyreactivity (PSR sort gate): high polyreactivity

Sequence: QVQLVESGGGLVQAGGSLRLSCAASGRIFARYAMGWYRPAPGKERELVAAITKSVGSTYYADSVKGRFTISRDNAKYTVYLQMNRLKPEDTAVYYCNAVARGYGYDYWGQGTQVTVSS
- polyreactivity (PSR sort gate): high polyreactivity

Sequence: QVQLVESGGGLVQAGGSLRLSCAASGRIFARYAMGWYRQAPGKETELVAAISRGGSTKYADSVKGRFTISRDNAKNTVYLQMNSLNPVDTAVYYCARQLWGSPYGAYYAGDYWGQGTQVTVSS
- polyreactivity (PSR sort gate): low polyreactivity

Sequence: QVQLVESGGGLVQAGGSLRLSCAASGRIFARYAMGWYRQAPGKQRELVAAITVSGDNTYYADSVKGRFTISRDNAKNTVYLQMNSLKPEDTAVYYCAVRAVLLFGFFDYDYWGQGTQLTVSS
- polyreactivity (PSR sort gate): low polyreactivity

Sequence: QVQLVESGGGLVQAGGSLRLSCAASGRIFARYTMGWYRQAPGKEREFVAGIRSSGGRTYYADSVKGRFTISRDNAKNTVYLQMNSLKPEDTAVYYCKAGGSWYFARYDYWGQGTLVTVSS
- polyreactivity (PSR sort gate): low polyreactivity

Sequence: QVQLVESGGGLVQAGGSLRLSCAASGRIFASYAMGWYRQAPGKERELVASISKSVGRTYYSDSVKGRFTISRDNAKNTVYLQMNSLKPEDTAVYDCAAISYFPLRTRYERWFYYWGQGTQVTVSS
- polyreactivity (PSR sort gate): high polyreactivity

Sequence: QVQLVESGGGLVQAGGSLRLSCAASGRIFATNGMGWYRQATGKERELVATSTRSAGRTYYADSVKGRFTISRDNAKNTVYLQMNSLKPEDTAVYYCAADGYSTAVDDTVRYIVEYEYWGQGTQVTVSS
- polyreactivity (PSR sort gate): low polyreactivity

Sequence: QVQLVESGGGLVQAGGSLRLSCAASGRIFATYAMGWSRQAPGKERELVAAISDGGGITYYADSVKGRFTISRDNAKNTVYLQMNSLKPDDTAVYYCARTYARYNFGYWGQGTQVTVSS
- polyreactivity (PSR sort gate): low polyreactivity

Sequence: QVQLVESGGGLVQAGGSLRLSCAASGRIFAVYAMGWYRQAPGKEREFVAAISYSGGITYYADSVKGRFTISRDTAKNTVYLQMNSLKPEDTAVYYCNAYYYFWGQGTQVTVSS
- polyreactivity (PSR sort gate): low polyreactivity

Sequence: QVQLVESGGGLVQAGGSLRLSCAASGRIFAVYAMGWYRQAPGKERELVAAINWNDGSTYYADSVKGRFTISRDNAKNTVYLQMNSLKPEDTAVYYCAARALSRSVYGKSGYKYGYWGQGTQVTVSS
- polyreactivity (PSR sort gate): high polyreactivity

Sequence: QVQLVESGGGLVQAGGSLRLSCAASGRIFAWYAMGWYRQAPGKEREFVAASTYRAARTYYADSVKGRFTISRDNAKNTVYLQMNSLNPEDTAVYYCNRQFGRRVYISHPGPGYWGQGTQVTVSS
- polyreactivity (PSR sort gate): high polyreactivity
